From US20180194862A1 (AbbVie / Abbott, published 2018) come the findings set out here.

In one assay the target is T1, mouse CD40 (mouse, UniProt P27512 20-193, limits assumed).
T1 construct: also called murine CD40
T1 sequence (looked up): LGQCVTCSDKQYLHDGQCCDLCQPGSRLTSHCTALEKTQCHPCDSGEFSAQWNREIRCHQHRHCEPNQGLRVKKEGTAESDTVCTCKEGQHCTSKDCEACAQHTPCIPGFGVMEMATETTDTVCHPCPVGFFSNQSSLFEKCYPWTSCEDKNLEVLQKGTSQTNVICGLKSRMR
Briefly: FACS. On the technique in general: A flow cytometer gives signals particle by particle.

Another assay deals with T2, dog CD40 (dog, UniProt Q7YRL5 21-194, limits assumed).
T2 sequence (looked up): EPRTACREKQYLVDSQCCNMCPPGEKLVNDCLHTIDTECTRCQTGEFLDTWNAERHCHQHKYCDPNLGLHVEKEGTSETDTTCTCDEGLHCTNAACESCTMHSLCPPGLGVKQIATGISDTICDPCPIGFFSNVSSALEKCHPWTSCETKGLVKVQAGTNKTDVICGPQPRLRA
Kind of assay: FACS.

For assay [1], the target named is human CD40 on cells (HEK293 stable transfectants, HEK-Blue CD40 cells, human B cells, monocytic cells, … (human, UniProt P25942 21-277)). Kind of assay: cell-based or functional assay.
human CD40 on cells (HEK293 stable transfectants, HEK-Blue CD40 cells, human B cells, monocytic cells, …, sequence (P25942 21-277 limits assumed): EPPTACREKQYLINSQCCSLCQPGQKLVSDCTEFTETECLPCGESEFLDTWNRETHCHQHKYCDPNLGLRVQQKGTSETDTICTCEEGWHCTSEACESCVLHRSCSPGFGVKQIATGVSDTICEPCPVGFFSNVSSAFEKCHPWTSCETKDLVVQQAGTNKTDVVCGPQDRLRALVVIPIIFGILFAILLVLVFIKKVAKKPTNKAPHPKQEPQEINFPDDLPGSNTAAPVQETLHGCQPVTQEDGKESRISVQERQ
The next assay addresses T3, cynomolgus mesothelin (cynomolgus).
T3 construct: also called cynoMSLN; Cyno MSLN
Kind of assay: SPR.

In another assay the target is T4, human mesothelin (human, UniProt Q13421 296-580, limits assumed).
T4 construct: also called Human MSLN
T4 sequence (Q13421 other isoform, or with tags, fused parts or gaps limits assumed): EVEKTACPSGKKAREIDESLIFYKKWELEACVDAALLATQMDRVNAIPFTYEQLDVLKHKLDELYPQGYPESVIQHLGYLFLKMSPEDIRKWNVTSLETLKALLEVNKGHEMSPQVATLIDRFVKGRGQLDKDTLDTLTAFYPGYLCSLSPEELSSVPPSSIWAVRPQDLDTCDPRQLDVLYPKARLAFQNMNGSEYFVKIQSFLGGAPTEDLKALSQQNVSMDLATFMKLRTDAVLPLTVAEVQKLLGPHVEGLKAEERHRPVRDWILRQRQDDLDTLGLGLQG
Kind of assay: SPR. (SPR reads the build-up and loss of mass on a sensor chip optically.)

Assay [2] deals with T5, mesothelin on cells (endogenous on SN12C, OVCAR3, SW1990); HEK293 cells expressing cell-surface human … (human, UniProt Q13421 296-598).
T5 construct: whole, on cells; also called cell-surface MSLN
T5 sequence (Q13421 other isoform, or with tags, fused parts or gaps limits assumed): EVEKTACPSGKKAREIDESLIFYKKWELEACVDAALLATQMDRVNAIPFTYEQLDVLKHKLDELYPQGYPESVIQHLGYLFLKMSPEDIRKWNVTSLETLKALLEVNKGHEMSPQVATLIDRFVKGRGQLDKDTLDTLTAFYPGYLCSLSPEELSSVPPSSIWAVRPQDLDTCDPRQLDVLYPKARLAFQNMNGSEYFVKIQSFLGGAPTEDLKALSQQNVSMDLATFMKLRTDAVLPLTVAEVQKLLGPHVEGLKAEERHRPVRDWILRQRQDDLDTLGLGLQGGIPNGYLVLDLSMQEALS
Briefly: FACS, SN12C (CA125-). On the procedure:
(§1) The binding of anti-mesothelin affinity matured variants was measured by FACS on the ovarian cancer cell line OVCAR3, the pancreatic cancer cell line SW1990, and the renal cancer cell line SN12C. Both OVCAR3 and SW1990 express CA125, but CA125 expression on SN12C cells was not detected.

The target in assay [3] is T5, mesothelin on cells (endogenous on …). Briefly: FACS, OVCAR3 (CA125+). As for the experimental part:
as §1

B1: huAb9-2 (antibody, human IgG1, V domains shown)
VH: EVQLQESGPGLVKPSETLSLTCTVSGYSITSNYYWNWIRQPPGKGLEWMGYIRYDGSNNYNPSLKNRVTISRDTSKNQFSLKLSSVTAADTAVYYCARLDYWGQGTTVTVSS
VL: DAVMTQTPLSLSVTPGQPASISCRSSQSLENTNGNTFLNWFLQKPGQSPQLLIYRVSNRFSGVPDRFSGSGSGTDFTLKISRVEAEDVGVYFCLQVTHVPFTFGQGTKLEIK
notes: human IgG1, kappa
Regarding B1, the binding result in the assay with mouse CD40 was “no binding”. In the assay with dog CD40, the binding result is recorded as “no binding”. Further, in assay [1], the “Maximal activation (OD655)” value turned out to be 0.27 OD655 and the “NF-κB activation EC50, HEK293 CD40 NFκB reporter cells” value (shortened to “NF-κB activation EC50”) is 0.29 µg/mL.

B2: huAb9-1 (antibody, human IgG1, V domains shown)
VH: EVQLQESGPGLVKPSETLSLTCTVSGYSITSNYYWNWIRQPPGKGLEWMGYIRYDGSNNYNPSLKNRITISRDTSKNQFSLKLSSVTAADTAVYYCARLDYWGQGTTVTVSS
VL: DAVMTQTPLSLSVTPGQPASISCRSSQSLENTNGNTFLNWFLQKPGQSPQLLIYRVSNRFSGVPDRFSGSGSGTDFTLKISRVEAEDVGVYFCLQVTHVPFTFGQGTKLEIK
notes: human IgG1, kappa
For the molecule B2, the binding result with mouse CD40 is on record as “no binding”. Further, in the assay with dog CD40, the binding result is given as “no binding”. In assay [1], the “Maximal activation (OD655)” value turned out to be 0.26 OD655 and the “NF-κB activation EC50” value worked out at 0.19 µg/mL.

B3: huAb9-3 (antibody, human IgG1, V domains shown)
VH: EVQLQESGPGLVKPSETLSLTCTVSGYSISSNYYWNWIRQPPGKGLEWMGYIRYDGSNNYNPSLKSRVTISRDTSKNQFSLKLSSVTAADTAVYYCARLDYWGQGTTVTVSS
VL: DAVMTQTPLSLSVTPGQPASISCRSSQSLENTNGNTFLNWFLQKPGQSPQLLIYRVSNRFSGVPDRFSGSGSGTDFTLKISRVEAEDVGVYFCLQVTHVPFTFGQGTKLEIK
notes: human IgG1, kappa
For B3, the binding result with mouse CD40 and with dog CD40 was “no binding” throughout. For the same molecule, in assay [1], the “Maximal activation (OD655)” value stood at 0.27 OD655. Further, in assay [1], the “NF-κB activation EC50” value amounted to 0.18 µg/mL.

B4: huAb9-6 (antibody, human IgG1, V domains shown)
VH: EVQLQESGPGLVKPSETLSLTCTVSGYSISSNYYWNWIRQPPGKGLEWMGYIRYDGSNNYNPSLKSRVTISRDTSKNQFSLKLSSVTAADTAVYYCARLDYWGQGTTVTVSS
VL: DAVMTQTPLSLSVTPGQPASISCRSSQSLENTNGNTFLNWYLQKPGQSPQLLIYRVSNRFSGVPDRFSGSGSGTDFTLKISRVEAEDVGVYYCLQVTHVPFTFGQGTKLEIK
notes: human IgG1, kappa
As to B4, the binding result in the assay with mouse CD40 is recorded as “no binding”. Also, the binding result in the assay with dog CD40 is “no binding”. For the same molecule, in assay [1], the “Maximal activation (OD655)” value is 0.54 OD655 and the “NF-κB activation EC50” value worked out at 5.95 µg/mL.

B5: huAb9-4 (antibody, human IgG1, V domains shown)
VH: EVQLQESGPGLVKPSETLSLTCTVSGYSITSNYYWNWIRQPPGKGLEWMGYIRYDGSNNYNPSLKNRITISRDTSKNQFSLKLSSVTAADTAVYYCARLDYWGQGTTVTVSS
VL: DAVMTQTPLSLSVTPGQPASISCRSSQSLENTNGNTFLNWYLQKPGQSPQLLIYRVSNRFSGVPDRFSGSGSGTDFTLKISRVEAEDVGVYYCLQVTHVPFTFGQGTKLEIK
notes: human IgG1, kappa
With B5, the binding result in the assay with mouse CD40 and with dog CD40 was “no binding” in each case. In addition, the “Maximal activation (OD655)” value in assay [1] came to 0.61 OD655. Also, in assay [1], the “NF-κB activation EC50” value amounted to 5.55 µg/mL.

B6: huAb8-3 (antibody, human IgG1, V domains shown)
VH: EVQLVQSGAEVKKPGSSVKVSCKASGYTFTDYYINWVRQAPGQGLEWIGWIFPGSGSVYCNEQFKGRVTITVDKSTSTAYMELSSLRSEDTAVYYCASSLGKFAYWGQGTLVTVSS
VL: DIQMTQSPSSLSASVGDRVTITCKASQSVVTAVAWYQQKPGKSPKLLIYSASNRYTGVPSRFSGSGSGTDFTLTISSLQPEDFATYFCQQYSSYPYTFGGGTKVEIK
notes: human IgG1, kappa
In the case of B6, the binding result in the assay with mouse CD40 is “no binding”. Moreover, in the assay with dog CD40, the binding result is on record as “no binding”. Moreover, in assay [1], the “Maximal activation (OD655)” value turned out to be 0.46 OD655 and the “NF-κB activation EC50” value came out at 0.07 µg/mL.

B7: huAb6-2 (antibody, human IgG1, V domains shown)
VH: EVQLVQSGAEVKKPGSSVKVSCKASGYTFTSYWMHWVRQAPGQGLEWIGNIDPSNGETHYNQKFKDRVTITVDKSTSTAYMELSSLRSEDTAVYYCARERIYYSGSTYDGYFDVWGQGTTVTVSS
VL: DIQLTQSPSFLSASVGDRVTITCSASSSLSYMHWYQQKPGKSPKRWIYDTSKLASGVPSRFSGSGSGTEYTLTISSLQPEDFATYYCQQWSSNPWTFGGGTKVEIK
notes: human IgG1, kappa
Consider B7, for which the binding result with mouse CD40 is recorded as “no binding”. The binding result in the assay with dog CD40 was “no binding”. Also, in assay [1], the “Maximal activation (OD655)” value was determined as 0.2 OD655 and the “NF-κB activation EC50” value came to 1.21 µg/mL.

B8: huAb6-3 (antibody, human IgG1, V domains shown)
VH: EVQLVQSGAEVKKPGSSVKVSCKASGYTFTSYWMHWVRQAPGQGLEWIGNIDPSNGETHYAQKFQGRVTITVDKSTSTAYMELSSLRSEDTAVYYCARERIYYSGSTYDGYFDVWGQGTTVTVSS
VL: DIQLTQSPSFLSASVGDRVTITCSASSSLSYMHWYQQKPGKSPKRWIYDTSKLASGVPSRFSGSGSGTEYTLTISSLQPEDFATYYCQQWSSNPWTFGGGTKVEIK
notes: human IgG1, kappa
Consider B8, for which the binding result with mouse CD40 and in the assay with dog CD40 was “no binding” throughout. For the same molecule, in assay [1], the “Maximal activation (OD655)” value was determined as 0.32 OD655. In addition, the “NF-κB activation EC50” value in assay [1] amounted to 4.31 µg/mL.

B9: huAb6-1 (antibody, human IgG1, V domains shown)
VH: EVQLVQSGAEVKKPGSSVKVSCKASGYTFTSYWMHWVRQAPGQGLEWIGNIDPSNGETHYNQKFKDRATLTVDKSTSTAYMELSSLRSEDTAVYYCARERIYYSGSTYDGYFDVWGQGTTVTVSS
VL: DIQLTQSPSFLSASVGDRVTITCSASSSLSYMHWYQQKPGKSPKRWIYDTSKLASGVPSRFSGSGSGTEYTLTISSLQPEDFATYYCQQWSSNPWTFGGGTKVEIK
notes: human IgG1 heavy chain constant region, kappa light chain constant region
For B9, the binding result in the assay with mouse CD40 and with dog CD40 was “no binding” each time. Also, in assay [1], the “Maximal activation (OD655)” value turned out to be 0.26 OD655. In addition, in assay [1], the “NF-κB activation EC50” value was 1.09 µg/mL.

B10: HuAM5 (antibody, V domains shown)
VH: EVQLVQSGAEVKKPGASVKVSCKASGDTFNRYYVHWVRQAPGQGLEWMGIINPSGVSTTYAQKFQGRVTMTRDTSTSTVYMELSSLRSEDTAVYYCAEVRGSGYNYFAMDVWGQGTLVTVSS
VL: SYELTQPPSVSVSPGQTASITCSGDKLGDKYASWYQQKPGQSPVLVIYQDNRRPSGIPERFSGSNSGNTATLTISGTQAMDEADYYCQAWDSDTYVFGTGTKVTVL
notes: fully human antibody
As to B10, in the assay with cynomolgus mesothelin, the Kd was 4.9 nM, the koff came out at 0.0001 s⁻¹ and the kon was found to be 20000 M⁻¹ s⁻¹. In addition, in the assay with human mesothelin, the Kd is at most 0.46 nM, the koff was at most 1e-05 s⁻¹ and the on-rate (kon) was 23000 M⁻¹ s⁻¹. Besides, in assay [2], the EC50 was 0.09 µg/mL and the “Maximum binding (MFI)” value came out at 10000 MFI. In assay [3], the EC50 was determined as 0.7 µg/mL and the “Maximum binding (MFI)” value turned out to be 3690 MFI.

B11: HuAM16 (antibody, V domains shown)
VH: EVQLVQSGAEVKKPGASVKVSCKASGDTFNRYYVQWVRQAPGQGLEWMGIINPSGVSTTYAQKFQGRVTMTRDTSTSTVYMELSSLRSEDTAVYYCAETRGSGFNYFGMDVWGQGTLVTVSS
VL: SYELTQPPSVSVSPGQTASITCSGDKLGDKYASWYQQKPGQSPVLVIYQDNRRPSGIPERFSGSNSGNTATLTISGTQAMDEADYYCQAWDSDTYVFGTGTKVTVL
notes: fully human antibody
In the assay with cynomolgus mesothelin, B11 yielded a Kd of 4.1 nM, a koff of 0.00019 s⁻¹ and a kon of 47000 M⁻¹ s⁻¹. In the assay with human mesothelin, this molecule returned a Kd of 0.46 nM, a koff of 2.4e-05 s⁻¹ and an association rate constant (kon) of 52000 M⁻¹ s⁻¹. For the same molecule, in assay [2], the EC50 was 0.08 µg/mL and the “Maximum binding (MFI)” value is 9540 MFI. Also, in assay [3], the EC50 came out at 0.6 µg/mL and the “Maximum binding (MFI)” value was 3610 MFI.

For orientation: Kd means the equilibrium constant for the complex coming apart. Read a high Kd as a looser complex. In general, koff refers to the first-order rate constant of dissociation. Low values mean slow dissociation, high ones fast dissociation. Usually kon stands for the second-order rate constant of association. A high value points to fast association. Broadly, the EC50 is the concentration that produces a half-maximal response. Read a low EC50 as a more potent agent.
